Measured values from patent US6518054B1, “Metallo-endopeptidases” (Rijksuniverstteit Te Groningen, priority 1997, dated 2003).

Key:
[1] = Thermal stability (T50) at varying CaCl2 concentrations
Procedure: Thermal stability was measured, using varying CaCl2concentrations in the standard assay buffer (20 mM Na acetate, pH 5.3, 0.01% Triton X-100, 0.5% isopropanol, 62.5 mM NaCl). T50 is the temperature of incubation at which 50 percent of the initial proteolytic activity is lost during a 30 minutes incubation.

[2] = First order thermal inactivation of TLP-ste variants at 75° C. in 5 mM or 0.2 mM CaCl2
casein [3] = assay: Specific activity with casein as substrate at 37° C.; format: biochemical; conditions: casein 0.8%, pH 7.5, 5 mM CaCl2
Procedure: (§1) Specific activities for TLP-ste and the 8-fold mutant were determined using casein (0.8%) as a substrate in 50 mM Tris-HCl (pH 7.5), 5 mM CaCl2 at 37° C. […] (pH 7.0), 5 mM CaCl2, 5% or 1% DMSO, 0.5% isopropanol, 0.01% Triton X-100, 50 mM NaCl, with […] of substrate, by measuring the decrease in absorption at 345 nm (Î345=−317 M^−1·cm^−1). Stock solutions of the furylacryloylated dipeptides, (Sigma, St. Louis, […].) were prepared by dissolving 3-(-2-furylacryloyl)-L-glycyl-L-leucine amide (FaGLa) and 3-(-2-furylacryloyl)-L-alanyl-L-phenylalanine amide (FaAFa) in DMSO. The kcat/Km ratios of the enzymes were determined by varying the enzyme concentrations (over a 50 fold range) under pseudo-first order conditions by measuring the initial activity, essentially according to the method described by Feder^30. The Ki for phosphoramidon (N-[a-L-rhamnopyrano-syl-oxyhydroxyphophinyl]-L-leucyl-L-tryptophan) was determined by a 30 minute preincubation of a 100 pM protease solution with varying concentrations of the inhibitor (10^−8 to 10^−3 M), in 50 mM MOPS (pH 7.0), 5 mM CaCl2, 50 mM NaCl, prior to the addition of the furylacryloated substrate. For determination of the Ki FaAFa was used as the substrate. Since the Km of the substrate for the enzyme is higher than the concentration used, IC50 values were taken to be equal to Ki values. The optimum temperature for activity was determined by incubating proteases with casein (0.8%) in 50 mM Tris-HCl (pH 7.5), 5 mM CaCl2, at different temperatures for 30 minutes, after which the amount of released peptides, indicative for activity, was measured^11.

casein [4] = assay: Optimum temperature for activity with casein; format: biochemical; conditions: casein 0.8%, 30 minutes
Procedure: as §1

[5] = format: physicochemical; conditions: buffer, pH 5.3
Procedure: Stabilities of TLPs were determined at different temperatures. Shown are the first-order inactivation curves for TLP-ste incubated at 80° C. (Δ) and 90° C. (+), thermolysin at 90° C. (Δ), and the 8-fold mutant at 100° C. (●), respectively. […] Samples, taken at the various time points, were quickly cooled on ice (15 s) and transferred to 50° C. to prevent cold denaturation. Residual activity was determined using casein (0.8%) as a substrate in 50 mM TrisHCl (pH 7.5), 5 mM CaCl2 as described previously (Eijsink, V. G. H., Veltman, O. R., Aukema, W., Vriend, G. & Venema, G. Nature Struct. Biol. 2, 374-379 (1995)).

[6] = Effect of denaturing agents on protease activity (FaGLa, 50° C.); format: biochemical
Procedure: Protease activities were determined in 50 mM MOPS (pH 7.0), 5 mM CaCl2, 50 mM NaCl, 0.01% Triton X-100, 0.5% isopropanol, using 100 μM FaGLa (3-(-2-furylacryloyl)-L-glycyl-L-leucine amide) as a substrate at 50° C. Enzymes and denaturing agents were preincubated in the reaction mixture at 50° C. for 15 minutes prior to the addition of the substrate. The reaction was followed by measuring the change in absorbance at 345 nm. […] Activities are expressed as percentage of the activity in the absence of denaturant.

[7] = system: α-amylase from Bacillus licheniformis; assay: Hydrolysis of protease resistant α-amylase (SDS-PAGE); format: biochemical; conditions: 60 minutes
Procedure: As an example of the enzymatic activity of the 8-fold mutant we tested the hydrolysis of protease resistant α-amylase from Bacillus licheniformis by the 8-fold mutant. B. licheniformis α-amylase (1 mg/ml) in 50 mM MOPS, pH 7.0, 5 mM CaCl2, 0.01% Triton X-100 was incubated with purified TLP-ste (1 μg/ml), the 8-fold mutant or without protease for 60 minutes at the temperature indicated. The reaction volume was 500 μL. […] Precipitates (only observed in the 100° C. samples) were collected by centrifugation and redissolved in 500 μL 6 M Urea. Both supernatants and redissolved precipitates were subjected to standard SDS-PAGE, including pre-treatment with sample loading buffer (5 minutes at 100° C.). The samples were identical in size (20 μL supernatant and 20 μL dissolved precipitate). Gels were stained with Coomassie-brilliant blue.

[8] = 0.2 mM CaCl2, 30 minutes incubation
[9] = 0.5 mM CaCl2, 30 minutes incubation
[10] = 2.5 mM CaCl2, 30 minutes incubation
[11] = 5.0 mM CaCl2, 30 minutes incubation
[12] = 7.5 mM CaCl2, 30 minutes incubation
[13] = 12.5 mM CaCl2, 30 minutes incubation

B1: D57S: TLP-ste variant with Asp57 of the Ca3 site replaced by Ser (protein, listed as Bacillus sp.)
chain: VAGASTVGVGRGVLGDQKYINTTYSGYYYLQDNTRGSGIFTYDGRNRTVLPGSLWTSGDNQFTASYDAAAVDAHYYAGVVYDYYKNVHGRLSYDGSNAAIRSTVHYGRGYNNAFWNGSQMVYGDGDGQTFLPFSGGIDVVGHELTHAVTDYTAGLVYQNESGAINEAMSDIFGTLVEFYANRNPDWEIGEDIYTPGVAGDALRSMSDPAKYGDPDHYSKRYTGTQDNGGVHTNSGIINKAAYLLSQGGVHYGVSVNGIGRDKMGKIFYRALVYYLTPTSNFSQLRAACVQAAADLYGSTSQEVNSVKQAFNAVGVY
For B1, the “dependence of stability on the calcium concentration” value [1] was “reduced this calcium dependence”, the T50 [1, 8] was 65.9 °C and the T50 [1, 9] was 67.3 °C. For the same molecule, the T50 [1, 10] was 67.5 °C, the T50 [1, 11] was 68.2 °C and the T50 [1, 12] was 68.8 °C. The T50 [1, 13] was 69.4 °C, the “stability effect of the mutation on the wild-type enzyme” value ([1]; lowest calcium concentration tested) was “slightly stabilised” and the “Half-life ratio 5 mM/0.2 mM” value [2] was 1.5.

B2: T63F-A69P: TLP-ste variant with the combined stabilising T63F-A69P mutation (protein, listed as Bacillus sp.)
chain: VAGASTVGVGRGVLGDQKYINTTYSGYYYLQDNTRGSGIFTYDGRNRTVLPGSLWTDGDNQFFASYDAPAVDAHYYAGVVYDYYKNVHGRLSYDGSNAAIRSTVHYGRGYNNAFWNGSQMVYGDGDGQTFLPFSGGIDVVGHELTHAVTDYTAGLVYQNESGAINEAMSDIFGTLVEFYANRNPDWEIGEDIYTPGVAGDALRSMSDPAKYGDPDHYSKRYTGTQDNGGVHTNSGIINKAAYLLSQGGVHYGVSVNGIGRDKMGKIFYRALVYYLTPTSNFSQLRAACVQAAADLYGSTSQEVNSVKQAFNAVGVY
For B2, the “dependence of stability on the calcium concentration” value [1] was “depended strongly on the calcium concentration”, the T50 [1, 8] was 77.8 °C and the T50 [1, 9] was 80.9 °C. It also gave a T50 [1, 10] of 86.6 °C, a T50 [1, 11] of 87.2 °C and a T50 [1, 12] of 89.7 °C. For the same molecule, the T50 [1, 13] was 90.2 °C and the “Half-life ratio 5 mM/0.2 mM” value [2] was 19.

B3: D57S-T63F-A69P: TLP-ste variant combining D57S with T63F-A69P (protein, listed as Bacillus sp.)
chain: VAGASTVGVGRGVLGDQKYINTTYSGYYYLQDNTRGSGIFTYDGRNRTVLPGSLWTSGDNQFFASYDAPAVDAHYYAGVVYDYYKNVHGRLSYDGSNAAIRSTVHYGRGYNNAFWNGSQMVYGDGDGQTFLPFSGGIDVVGHELTHAVTDYTAGLVYQNESGAINEAMSDIFGTLVEFYANRNPDWEIGEDIYTPGVAGDALRSMSDPAKYGDPDHYSKRYTGTQDNGGVHTNSGIINKAAYLLSQGGVHYGVSVNGIGRDKMGKIFYRALVYYLTPTSNFSQLRAACVQAAADLYGSTSQEVNSVKQAFNAVGVY
In the case of B3, the “dependence of stability on the calcium concentration” value [1] is reported as “largely independent of the calcium concentration”, the T50 [1, 8] is reported as 74.6 °C and the T50 [1, 9] is reported as 75.4 °C. The T50 [1, 10] was 76.2 °C, the T50 [1, 11] was 76.5 °C and the T50 [1, 12] was 76.7 °C. For the same molecule, the T50 [1, 13] was 77.2 °C, the “stability compared with the wild-type enzyme” value ([1]; at lower calcium concentrations) was “considerably more stable than the wild-type enzyme” and the “Half-life ratio 5 mM/0.2 mM” value [2] was 1.5.

B4: TLP-ste: broad-specificity metalloprotease (thermolysin-like protease) produced by Bacillus stearothermophilus CU21, SEQUENCE ID No. 1 (protein)
chain: VAGASTVGVGRGVLGDQKYINTTYSSYYGYYYLQDNTRGSGIFTYDGRNRTVLPGSLWTDGDNQFTASYDAAAVDAHYYAGVVYDYYKNVHGRLSYDGSNAAIRSTVHYGRGYNNAFWNGSQMVYGDGDGQTFLPFSGGIDVVGHELTHAVTDYTAGLVYQNESGAINEAMSDIFGTLVEFYANRNPDWEIGEDIYTPGVAGDALRSMSDPAKYGDPDHYSKRYTGTQDNGGVHTNSGIINKAAYLLSQGGVHYGVSVNGIGRDKMGKIFYRALVYYLTPTSNFSQLRAACVQAAADLYGSTSQEVNSVKQAFNAVGVY
For B4, the Specific activity casein (casein [3]) was 3.5 ± 0.7 (U/mg) × 10^−3, the “Topt (optimum temperature for activity)” value (casein [4]) was 74 °C and the “half-life 80° C.” value [5] was 17.5 min. The “half-life 90° C.” value [5] was under 2 min, the “half-life 100° C.” value [5] was under 0.5 min and the relative activity ([6]; GndHCl 0 M) was 100%. It also gave a relative activity ([6]; GndHCl 1.0 M) of 99%, a relative activity ([6]; GndHCl 2.0 M) of 62% and a relative activity ([6]; GndHCl 3.0 M) of 0%. For the same molecule, the relative activity ([6]; GndHCl 4.0 M) was 0%, the relative activity ([6]; GndHCl 5.0 M) was 0% and the relative activity ([6]; GndHCl 5.5 M) was 0%. The relative activity ([6]; GndHCl 6.0 M) was 0%, the relative activity ([6]; SDS 0 % w/v) was 100% and the relative activity ([6]; SDS 0.25 % w/v) was 72%. The relative activity ([6]; SDS 0.5 % w/v) was 37%, the relative activity ([6]; SDS 0.75 % w/v) was 9.6% and the relative activity ([6]; SDS 1.0 % w/v) was 0%. For the same molecule, the relative activity ([6]; SDS 1.25 % w/v) was 0%, the relative activity ([6]; SDS 1.5 % w/v) was 0% and the relative activity ([6]; SDS 2.0 % w/v) was 0%. The relative activity ([6]; Urea 0 M) was 100%, the relative activity ([6]; Urea 0.5 M) was 96% and the relative activity ([6]; Urea 1.0 M) was 87%. For the same molecule, the relative activity ([6]; Urea 2.0 M) was 75%, the relative activity ([6]; Urea 3.0 M) was 3% and the relative activity ([6]; Urea 4.0 M) was 0%. The relative activity ([6]; Urea 5.0 M) was 0%, the relative activity ([6]; Urea 7.5 M) was 0% and the “degradation of B. licheniformis α-amylase” value ([7]; 80° C. and lower) was “No significant degradation”. For the same molecule, the “hydrolysis of B. licheniformis α-amylase” value ([7]; 100° C.) was “no hydrolysis had occurred”, the T50 [1, 8] was 65.5 °C and the T50 [1, 9] was 67.5 °C. It also gave a T50 [1, 10] of 72.9 °C, a T50 [1, 11] of 75.2 °C and a T50 [1, 12] of 77.0 °C. The T50 [1, 13] was 77.9 °C and the “Half-life ratio 5 mM/0.2 mM” value [2] was 12.

B5: TLN: thermolysin, protease secreted by Bacillus thermoproteolyticus, SEQUENCE ID No. 2 (protein, UniProt P00800 233-548, looked up)
Thermolysin: ITGTSTVGVGRGVLGDQKNINTTYSTYYYLQDNTRGNGIFTYDAKYRTTLPGSLWADADNQFFASYDAPAVDAHYYAGVTYDYYKNVHNRLSYDGNNAAIRSSVHYSQGYNNAFWNGSQMVYGDGDGQTFIPLSGGIDVVAHELTHAVTDYTAGLIYQNESGAINEAISDIFGTLVEFYANKNPDWEIGEDVYTPGISGDSLRSMSDPAKYGDPDHYSKRYTGTQDNGGVHINSGIINKAAYLISQGGTHYGVSVVGIGRDKLGKIFYRALTQYLTPTSNFSQLRAAAVQSATDLYGSTSQEVASVKQAFDAVGVK
With B5 the “Topt (optimum temperature for activity)” value (casein [4]) was 77 °C, the “half-life 80° C.” value [5] was over 200 min and the “half-life 90° C.” value [5] was 12.5 min. For the same molecule, the “half-life 100° C.” value [5] was under 2 min.
